{"source": "patent US20160024226A1", "molecular_target": "TNF-α (WEHI-13VAR cytotoxicity assay of Example 2)", "data": [{"substance": "cycloalkyne-modified adalimumab Fab′", "values": [{"measurement": "IC50 (read off the curve) [lower panel]", "result": 0.5, "unit": "µg/mL"}, {"measurement": "IC50 (read off the curve) [upper panel]", "result": 0.3, "unit": "µg/mL"}]}]}
